Test results published in patent publication US20240343800A1 (Merck KGaA, published 2024).

Experiments:
human ROR1 (on cells) [1] = target: T1, human ROR1 (on cells) (human, UniProt Q01973 30-937); experiment: flow cytometry, ROR1+ MDA-MB-231 cells
T1 construct: Entry given with its signal peptide; also called hROR1; huROR1
Description: (§1) After 15-minutes of incubation at room temperature, the cells were washed twice with 200 μL of PBS by centrifugation at 500×g for 5 minutes at room temperature and resuspended in […] of 10% goat serum in BD staining buffer (BD Biosciences, Cat No: 554657). […] The plates were then covered with foil to avoid direct light and incubated for 60 minutes at 4° C. […] After incubating for 30 minutes at 4° C., the cells were washed twice with 200 μL of PBS by centrifugation at 500×g for 5 minutes at room temperature and resuspended into 100 μL of fixation buffer (BioLegend, Cat No: 420801). The samples were then analyzed on a flow cytometer for binding signal using FlowJo software. ROR and CD3 binding EC₅₀s (concentration vs mean fluorescence intensity (MFI)) for reference molecules and test bispecific TCEs were obtained using 4-parameter non-linear regression curve fitting in GraphPad Prism.

human ROR1 (on cells) [2] = target: T1, human ROR1 (on cells); experiment: cell-based or functional assay
human ROR1 (on cells) [3] = target: T1, human ROR1 (on cells); experiment: cell-based or functional assay; remark: listed apart in the source
[4] = target: T2, cynomolgus CD3 (on cynomolgus pan-T cells) (cynomolgus, UniProt Q95LI5 22-198); experiment: flow cytometry, cynomolgus pan-T cells
T2 construct: whole, on cells
T2 sequence (Q95LI5 22-198): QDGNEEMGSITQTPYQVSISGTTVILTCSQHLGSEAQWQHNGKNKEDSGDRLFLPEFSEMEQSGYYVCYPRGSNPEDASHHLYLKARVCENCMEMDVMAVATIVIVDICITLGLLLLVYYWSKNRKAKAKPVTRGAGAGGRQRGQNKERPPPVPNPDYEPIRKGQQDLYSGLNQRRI
Description: as §1

human ROR1 (on cells) [5] = target: T1, human ROR1 (on cells); experiment: flow cytometry, MDA-MB-231 cells; reference: 82H02 TCE #4
human ROR1 (on cells) [6] = target: T1, human ROR1 (on cells); experiment: cell-based or functional assay; remark: listed apart in the source
[7] = target: T3, mouse ROR1 (on 4T1 cells engineered to overexpress it) (mouse, UniProt Q9Z139 30-937); experiment: flow cytometry; reference: human ROR1 on MDA-MB-231 cells
T3 construct: whole, on cells; also called muROR1; mROR1

human ROR1 (on cells) [8] = target: T1, human ROR1 (on cells); experiment: cell-based or functional assay; remark: listed apart in the source
[9] = target: T3, mouse ROR1 (on 4T1 cells engineered to …); experiment: flow cytometry, 4T1-muROR1 cells; reference: 82H02 TCE #4
Description: as §1

[10] = target: T4, human CD3 (on Jurkat T cells or human CD8+ T cells) (human, UniProt P07766 23-207; P09693 23-182; P04234 22-171; P20963 22-164); experiment: flow cytometry, human CD8+ T cells
T4 construct: Entries are printed with signal peptides; also called huCD3; CD3ε
T4 sequence (P07766 23-207 limits assumed, chain 1 of 4): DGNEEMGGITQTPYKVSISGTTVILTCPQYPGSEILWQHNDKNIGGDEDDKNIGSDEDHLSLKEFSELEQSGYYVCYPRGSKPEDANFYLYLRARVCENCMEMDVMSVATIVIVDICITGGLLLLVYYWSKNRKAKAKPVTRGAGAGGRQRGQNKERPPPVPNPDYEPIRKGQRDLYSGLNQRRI
T4 sequence (P09693 23-182 limits assumed, chain 2 of 4): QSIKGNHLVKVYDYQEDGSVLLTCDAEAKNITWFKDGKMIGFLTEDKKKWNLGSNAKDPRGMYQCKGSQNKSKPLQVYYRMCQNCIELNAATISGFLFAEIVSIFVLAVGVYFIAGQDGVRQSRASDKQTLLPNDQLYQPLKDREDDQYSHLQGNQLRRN
T4 sequence (P04234 22-171 limits assumed, chain 3 of 4): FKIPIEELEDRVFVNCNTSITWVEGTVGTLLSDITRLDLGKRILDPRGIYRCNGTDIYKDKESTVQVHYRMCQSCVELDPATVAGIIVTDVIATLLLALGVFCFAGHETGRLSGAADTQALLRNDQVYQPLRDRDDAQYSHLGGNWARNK
T4 sequence (P20963 22-164 limits assumed, chain 4 of 4): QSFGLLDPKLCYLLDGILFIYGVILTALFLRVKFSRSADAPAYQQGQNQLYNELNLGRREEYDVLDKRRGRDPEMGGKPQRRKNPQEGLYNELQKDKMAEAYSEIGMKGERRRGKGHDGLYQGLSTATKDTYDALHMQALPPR
Description: as §1

[11] = target: T3, mouse ROR1 (on 4T1 cells engineered to …); experiment: flow cytometry, 4T1 cells overexpressing mouse ROR1
Description: as §1

[12] = target: T5, human ROR2 (on recombinant cell lines) (human, UniProt Q01974 34-943); experiment: flow cytometry on recombinant cell lines; confirmed by standard ELISA
T5 construct: whole, on cells

[13] = target: T6, human Fc-Frizzled-Kringle fusion protein (human Fc fused to the Frizzled and Kringle domains of human ROR1) (human); experiment: yeast surface display sorting
T6 construct: Entry is printed with a leader; also called huFc-frz-KNG
T6 sequence (chain, as listed by the source limits assumed): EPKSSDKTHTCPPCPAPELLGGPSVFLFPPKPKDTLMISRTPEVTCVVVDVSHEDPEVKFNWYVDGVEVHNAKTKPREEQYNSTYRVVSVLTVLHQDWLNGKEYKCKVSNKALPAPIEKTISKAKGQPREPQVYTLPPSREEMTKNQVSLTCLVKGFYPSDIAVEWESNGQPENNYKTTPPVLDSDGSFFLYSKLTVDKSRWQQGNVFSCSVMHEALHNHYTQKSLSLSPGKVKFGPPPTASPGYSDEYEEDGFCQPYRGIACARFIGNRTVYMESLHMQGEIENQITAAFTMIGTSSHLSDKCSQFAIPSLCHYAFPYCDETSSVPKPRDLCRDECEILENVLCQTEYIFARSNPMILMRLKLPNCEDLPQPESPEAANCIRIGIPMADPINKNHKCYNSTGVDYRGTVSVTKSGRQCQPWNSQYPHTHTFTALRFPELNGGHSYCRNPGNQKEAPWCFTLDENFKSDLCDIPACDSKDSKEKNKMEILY

B1: 82H02 TCE #3 (sequence optimized 82H02 bispecific TCE in Format 1A, low ROR1 / high CD3 affinity) (bispecific antibody)
heavy 1: EVQLVESGGGLVQPGGSLKLSCAASGFTFNTYAMNWVRQASGKGLEWVGRIRSKYNNYATYYADSVKGRFTISRDDSKNTLYLQMNSLKTEDTAVYYCVRHGNFGASYVSWFAYWGQGTMVTVSSASTKGPSVFPLAPSSKSTSGGTAALGCLVKDYFPEPVTVSWNSGALTSGVHTFPAVLQSSGLYSLSSVVTVPSSSLGTQTYICNVNHKPSNTKVDKKVEPKSCDKTHTCPPCPAPEAAGGPSVFLFPPKPKDTLMISRTPEVTCVVVDVSHEDPEVKFNWYVDGVEVHNAKTKPREEQYNSTYRVVSVLTVLHQDWLNGKEYKCKVSNKALGAPIEKTISKAKGQPFRPEVHLLPPSREEMTKNQVSLTCLARGFYPKDIAVEWESNGQPENNYKTTPSRQEPSQGTTTFAVTSKLTVDKSRWQQGNVFSCSVMHEALHNHYTQKTISLSPGK
heavy 2: EIVLTQSPATLSLSPGERATLSCRASQSVSSYLAWYQQKPGQAPRLLIYDASNRATGIPARFSGSGSGTDFTLTISSLEPEDFAVYYCQQRSNWPPFTFGQGTRLEIKGGGGSGGGGSGGGGSGGGGSEVQLLESGGGLVQPGGSLRLSCAASGFTFTSYAMSWVRQAPGKGLEWVSTISGSGGGTYYTDSVKGRFTISRDNSKNTLYLQMNSLRAEDTAVYYCAQGSSIFDYWGQGTLVTVSSEPKSSDKTHTCPPCPAPEAAGGPSVFLFPPKPKDTLMISRTPEVTCVVVDVSHEDPEVKFNWYVDGVEVHNAKTKPREEQYNSTYRVVSVLTVLHQDWLNGKEYKCKVSNKALGAPIEKTISKAKGQPREPQVYTLPPPSEELALNELVTLTCLVKGFYPSDIAVEWLQGSQELPREKYLTWAPVLDSDGSFFLYSILRVAAEDWKKGDTFSCSVMHEALHNHYTQKSLDRSPGKGGGGSGGGGSGGGGSGGGGSEIVLTQSPATLSLSPGERATLSCRASQSVSSYLAWYQQKPGQAPRLLIYDASNRATGIPARFSGSGSGTDFTLTISSLEPEDFAVYYCQQRSNWPPFTFGQGTRLEIKGGGGSGGGGSGGGGSGGGGSEVQLLESGGGLVQPGGSLRLSCAASGFTFTSYAMSWVRQAPGKGLEWVSTISGSGGGTYYTDSVKGRFTISRDNSKNTLYLQMNSLRAEDTAVYYCAQGSSIFDYWGQGTLVTVSS
light: QAVVTQEPSLTVSPGGTVTLTCRSSTGAVTTSNYANWVQQKPGQAPRGLIGGTNKRAPGTPARFSGSLLGGKAALTLSGVQPEDEAEYYCALWYSNLWVFGGGTKLTVLGQPKAAPSVTLFPPSSEELQANKATLVCLISDFYPGAVTVAWKADSSPVKAGVETTTPSKQSNNKYAASSYLSLTPEQWKSHRSYSCQVTHEGSTVEKTVAPTECS
notes: also called 82H02 #3; 82H02 VL1.06x1F3.5-VH1.03
EC50 (human ROR1 (on cells) [1]): 211 nM | IFNγ release AUC, PBMCs: MDA-MB-231-0.2 (human ROR1 (on cells) [2]): 1.29e+06 | IFNγ release AUC, PBMCs: MDA-MB-231-0.4 (human ROR1 (on cells) [2]): 1.68e+06 | IFNγ release AUC, PBMCs: MDA-MB-231-0.6 (human ROR1 (on cells) [2]): 1.62e+06 | IFNγ release AUC, PBMCs: MDA-MB-231-1.3 (human ROR1 (on cells) [2]): 4.32e+06 | IFNγ release AUC, PBMCs: MDA-MB-231-7 (human ROR1 (on cells) [2]): 4.43e+06 | IFNγ release EC50, PBMCs: MDA-MB-231-0.2 (human ROR1 (on cells) [2]): 202 pM | IFNγ release EC50, PBMCs: MDA-MB-231-0.4 (human ROR1 (on cells) [2]): 167 pM | IFNγ release EC50, PBMCs: MDA-MB-231-0.6 (human ROR1 (on cells) [2]): 107 pM | IFNγ release EC50, PBMCs: MDA-MB-231-1.3 (human ROR1 (on cells) [2]): 30.8 pM | IFNγ release EC50, PBMCs: MDA-MB-231-7 (human ROR1 (on cells) [2]): 27.1 pM | IFNγ release Emax, PBMCs: MDA-MB-231-0.2 (human ROR1 (on cells) [2]): 1830% | IFNγ release Emax, PBMCs: MDA-MB-231-0.4 (human ROR1 (on cells) [2]): 2250% | IFNγ release Emax, PBMCs: MDA-MB-231-0.6 (human ROR1 (on cells) [2]): 3160% | IFNγ release Emax, PBMCs: MDA-MB-231-1.3 (human ROR1 (on cells) [2]): 4680% | IFNγ release Emax, PBMCs: MDA-MB-231-7 (human ROR1 (on cells) [2]): 4730% | IFNγ release EC50, PBMCs: MDA-MB-231 (human ROR1 (on cells) [3]): 425 nM | Max IFNγ, PBMCs: MDA-MB-231 (human ROR1 (on cells) [3]): 881 pg/mL | EC50 [4]: 4.4 nM | fold difference in ROR1 binding affinity against 82H02 TCE #4 (human ROR1 (on cells) [5]): ~3 fold | TDCC EC50, PBMCs: MDA-MB-231 (human ROR1 (on cells) [6]): 148 nM | fold difference in apparent ROR1 binding affinity between human and mouse ROR1 [7]: ~5 fold | TDCC AUC, PBMCs: MDA-MB-231-0.2 (human ROR1 (on cells) [8]): 31300 | TDCC AUC, PBMCs: MDA-MB-231-0.4 (human ROR1 (on cells) [8]): 44800 | TDCC AUC, PBMCs: MDA-MB-231-0.6 (human ROR1 (on cells) [8]): 51000 | TDCC AUC, PBMCs: MDA-MB-231-1.3 (human ROR1 (on cells) [8]): 61700 | TDCC AUC, PBMCs: MDA-MB-231-7 (human ROR1 (on cells) [8]): 71400 | TDCC EC50, PBMCs: MDA-MB-231-0.2 (human ROR1 (on cells) [8]): 18.1 pM | TDCC EC50, PBMCs: MDA-MB-231-0.4 (human ROR1 (on cells) [8]): 15.3 pM | TDCC EC50, PBMCs: MDA-MB-231-0.6 (human ROR1 (on cells) [8]): 13.8 pM | TDCC EC50, PBMCs: MDA-MB-231-1.3 (human ROR1 (on cells) [8]): 10.2 pM | TDCC EC50, PBMCs: MDA-MB-231-7 (human ROR1 (on cells) [8]): 5.46 pM | TDCC Emax, PBMCs: MDA-MB-231-0.2 (human ROR1 (on cells) [8]): 33.1% | TDCC Emax, PBMCs: MDA-MB-231-0.4 (human ROR1 (on cells) [8]): 47.8% | TDCC Emax, PBMCs: MDA-MB-231-0.6 (human ROR1 (on cells) [8]): 53.8% | TDCC Emax, PBMCs: MDA-MB-231-1.3 (human ROR1 (on cells) [8]): 63.2% | TDCC Emax, PBMCs: MDA-MB-231-7 (human ROR1 (on cells) [8]): 72.8% | fold difference in ROR1 binding affinity against 82H02 TCE #4 [9]: ~2 fold | EC50 [10]: 3 nM | EC50 [11]: 1040 nM

B2: Clone 82H02 (from a Fab yeast surface display library of immunized transgenic rats) (Fab, V domains shown)
VH: EVQLLESGGGLVQPGGSLRLSCAASGFTFTSYAMSWVRQAPGKGLEWVSTISGSGGGTYYTDSVKGRFTISRDNSKNTLYLQMNSLRAEDTAVYYCAQGSSIFDYWGQGTLVTVSS
VL: EIVLTQSPATLSLSPGERATLSCRASQSVSSYLAWYQQKPGQAPRLLIYDASNRATGIPARFSGSGSGTDFTLTISSLEPEDFAVYYCQQRSNWPPCTFGQGTRLEIK
binding result [12]: no binding | binding result [13]: no binding
